This note sets out measurements from a protein production outcome set (Wang et al. 2014).
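Note: failed if final PepcDB status was selected cloned or expressed and not failed if soluble or beyond.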

The nature of this data set: label from the status in PepcDB records.
In the case of “MNLINMSNFTSGRRLLRFAVVADSHLNPVNAGNTSPWQTNHLANPRNEVVVAAINRIAPAFTVHVGDVVHPLPHSTDYDGAADFATTLYRGLQAPFYIAPGNHDIGDKHLPGNPAACISADSCGKYEQHFGAQWQAFTEGNVCFIIINACLLGSGLPQEDAQWQFLQSRLAEEKAAGRRLFLFTHYPPFVTAPDEENHYDNIDHGPRRRLLELTASAGVEALFAGHVHTFFLNRHAGMWSYALPSSTNFRQDYAELFRVEPGEELGRNDLGKFGFFVVDIHEHGHIARFVRTYGSTDPAQGEEIALQVEGDVREHAAGTVAADFRHDWARVEALPYNPPLDAFVRKRVRNDYYILNLWDAGMRGVRLPIHDIADEQAFERVRLLGELGHRCLVFGTAVPDAHLLERLASLGPALEGYEWIGPDSAIAAHAAGQFARRGIRLFVAPVMQPPSSHSQGQYDHNMTSGIALGELDHLARFRPQRADASAPGVVVRIAGDEPVLESVRQAVEQAASHGVAIALHINLANRKSALVNDDDQAQAARVAEAAIAKAAYPDVPMTLDTFMDIDRGYFARHGLVDRRNNPRPAATVLRRLSERLRGHAVRIGAITREPAQSTVRIALGDQTLDVRIGRDISF”, the protein production entry is “failed”. The same measure for “MNLKDLLAHRENLMDSAKRARSAITDDMDPADAAQAVENVKSIISEIESTDEAIAARRGVSDVTQKLKGLTITERGTENDSAASRSLGEHFVKAAGDRLKNQAAGAHIEYSVPEYQVKEDAHSSPKDLVEGWGTFYQR”: “not failed”; for “MNLKQAFIDNNSIRLGLSADTWQEAVRLAVQPLIDSKAVTSAYYDAIIASTEKYGPYYVLMPGMAMPHAEAGLGVNRNAFALITLTKPVTFSDGKEVSVLLTLAATDPSIHTTVAIPQIVALFELDNAIERLVACQSPKEVLEMVEESKDSPYLEGMDLNA”: “not failed”; for “MNLLIKINPVTRIIALMVLTTPLLLSLDVMSAAIALVATIILAPFAGVTWKMLLKRGWMLFLMAPVAALSMALYGRPDGKEYFSFLLIHVTDNSLALAAAIGLRVLAIGLPVVVLIARIDPTDLGDGLAQLLKLPERFVIGAVAGSRLMTLFREDWYSMSRARRARGIADQGKIKHFFTMTFGLLVLSLRRGSKLATAMEARGFGRTTGRTWARESTVGARDLVLILVCAAISAIALTVSIQTGFFKFLGT”: “failed”. With “MNLLVTSSLGVLLHLVVLCQADDHSELLVNTKSGKVMGTRVPVLSSHISAFLGIPFAEPPVGNMRFRRPEPKKPWSGVWNASTYPNNCQQYVDEQFPGFSGSEMWNPNREMSEDCLYLNIWVPSPRPKSTTVMVWIYGGGFYSGSSTLDVYNGKYLAYTEEVVLVSLSYRVGAFGFLALHGSQEAPGNVGLLDQRMALQWVHDNIQFFGGDPKTVTIFGESAGGASVGMHILSPGSRDLFRRAILQSGSPNCPWASVSVAEGRRRAVELGRNLNCNLNSDEELIHCLREKKPQELIDVEWNVLPFDSIFRFSFVPVIDGEFFPTSLESMLNSGNFKKTQILLGVNKDEGSFFLLYGAPGFSKDSESKISREDFMSGVKLSVPHANDLGLDAVTLQYTDWMDDNNGIKNRDGLDDIVGDHNVICPLMHFVNKYTKFGNGTYLYFFNHRASNLVWPEWMGVIHGYEIEFVFGLPLVKELNYTAEEEALSRRIMHYWATFAKTGNPNEPHSQESKWPLFTTKEQKFIDLNTEPMKVHQRLRVQMCVFWNQFLPKLLNATACDGELSSSGTSSSKGIIFYVLFSILYLIF”, the protein production entry is “not failed”. Consider “MNLPKKVRLVEVGPRDGLQNEKQPIEVADKIRLVDDLSAAGLDYIEVGSFVSPKWVPQMAGSAEVFAGIRQRPGVTYAALAPNLKGFEAALESGVKEVAVFAAASEAFSQRNINCSIKDSLERFVPVLEAARQHQVRVRGYISCVLGCPYDGDVDPRQVAWVARELQQMGCYEVSLGDTIGVGTAGATRRLIEAVASEVPRERLAGHFHDTYGQALANIYASLLEGIAVFDSSVAGLGGCPYAKGATGNVASEDVLYLLNGLEIHTGVDMHALVDAGQRICAVLGKSNGSRAAKALLAKA”, for which the protein production entry is listed as “not failed”. Take “MNLPPNPVIARGRGRGRKPNNVEANRGFAPSLGQKSDPSHSEGNQASGGNGGGGDAQVGPSIEKSSLSAVQMHKSEGDPRGSVRGRRLITDLVYSRPPGMTSKKGVVGTHITVQANYFKVLKRPNWTIYQYRVDFTPDVEATRLRRSFLY”: the protein production entry is “failed”. The same measure for “MNLQNWKLSEYVCAVENLSYTEFFRIIEYANDAGIPVNFVTNGTLITEEFVKKLSELNIGSVQVSLDGSKPEIMDRLRGNGIFHRAINSIKRLIDYGINTSVAFCATRINIRDFPNVVELASKLGVFEVRSMYFVPETEAHIKLAPSESQYKELLQWIYDN”: “failed”.
